# Assay results from paper PMC9802395, “Intratumoral nanobody–IL-2 fusions that bind the tumor extracellular matrix suppress solid tumor growth in mice” (PNAS Nexus, 2022).
# Molecular target: T1, biotinylated EIIIB (protein fragment of fibronectin splice variant EIIIB) (Homo sapiens (sequence identical in …, UniProt P02751, strain, biotin (ChromaLink NHS-biotin reagent)))
# Test: not given
# Conditions: not given
# Target sequence in this assay (P02751 1266-1356, change not shown): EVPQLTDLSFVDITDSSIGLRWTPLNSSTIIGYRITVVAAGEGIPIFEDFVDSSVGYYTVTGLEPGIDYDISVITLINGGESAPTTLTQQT
row,binding result,Binder
1,binds,LMJ1.2G (VHH) VHH: QVQLVETGGGLVQAGGSLRLSCAASGSTFSHSAGGWYRQAPEKQRELVAGIGSDGNINYADSVKDRFTISRDNASNTMYLQMNNLKPEDTAVYVCNIRGSYGNTYYSRWGQGTQVTVSS
2,binds,LMJ2.5J (VHH) VHH: QVQLVETRGGLVQAGGSLRLSCAVSGSTFSHSAGGWYRQAPEKQRELVAGIGSAGNINYADSVKDRFTISRDNASNTMYLQMNNLKPEDTAVYVCNIRGSYGNTYYSRWGQGTQVTVSS
3,binds,LMJ2.6A (VHH) VHH: RVQLVETGGGLVQAGGSLRLSCAVSGRTFSHSAGGWYRQAPEKQRELVAGIRSDGNINYADSVKDRFTISRDNASNTMYLQMNNLKPGDTAVYVCNIRGSYGNTYYSRWGQGTQVTVSS
4,binds,LMJ2.5C (VHH) VHH: QVQLVETGGGLVQAGGSLRLSCAASGSTFSHSAGGWYRQAPEKQRELVAGVRSDGNINYADSVKDRFTISRDNASNTMYLQMNNLKPEDTAVYVCNIRGSYGNTYYSRWGQGIQVTVSS
5,binds,LMJ1.3J (VHH) VHH: QVQLVGTGGGLVQAGGSLRLSCAASGSTFSHSAGGWYRQAPEKQRELVAGISSAGNINYADSVKDRFTISRDNASNTMYLQMNNLKPEDTAVYVCNIRGSYGNTYYSRWGQGTQVTVSS

# Molecular target: T1, biotinylated EIIIB (protein fragment of …)
# Test: BLI; biotinylated EIIIB immobilised on streptavidin tips (2 μg/mL); nanobody or IL-2 fusion as analyte, 0.1 to 350 nM; PBS with 0.05% Tween-20 and 1% recombinant human albumin; 1:1 binding model, global fit, double referencing
# Conditions: both partners purified
binding result,Kd,Binder
no binding (tested: 100 nM),,"NJT6-IL2 (NJT6 nanobody fused to murine IL-2) (VHH, glycine–serine (G5S) linker; murine interleukin-2; size-matched control; also called untargeted IL-2; source: HEK293 cells, transfected, purified (TALON; some by SEC)) VHH: QVQLVETGGDLVQPGGSLRLSCAASGLTLDYYAIGWVRQAPGKEREGVSCITPQDGNTYYDDSVMGRFTILRDNAKNMVYLQMNNLKPEDTAVYFCAAAGALTLDPSEYEYWGQGTQVTVSS"
,2 nM,"NJB2-IL2 (NJB2 nanobody fused to murine IL-2) (VHH, glycine–serine (G5S) linker; murine interleukin-2; about 32 kDa; source: HEK293 cells, transfected, purified (TALON; some by SEC)) VHH: QVQLVETGGGLVQAGGSLRLSCAASGSTFSHNAGGWYRQAPEKQRELVAGISSDGNINYADSVKDRFTISRDNASNTMYLQMNNLKPEDTAVYVCNIRGSYGNTYYSRWGQGTQVTVSS"
,0.025 nM,"LMJ2.5I nanobody, biotin-tagged (VHH, The text says the nanobodies for BLI were purified with C-terminal polyhistidine tags; source: E. coli WK6, periplasm, purified (Ni-NTA), then sortase-tagged with biotin; not shown: LPETG sortase motif, C-terminal, kept; His6, C-terminal, cleaved) VHH: RVQLVETGGGLVQAGGSLRLSCAVSGSTFSHSAGGWYRQAPEKQRELVAGIRSDGNINYADSVKDRFTISRDNASNTMYLQMNNLKPEDTAVYVCNIRGSYGNTYYSRWGQGAQVTVSS"
,0.3 nM,"LMJ1.2C nanobody, biotin-tagged (VHH, The text says the nanobodies for BLI were purified with C-terminal polyhistidine tags; source: E. coli WK6, periplasm, purified (Ni-NTA), then sortase-tagged with biotin; not shown: LPETG sortase motif, C-terminal, kept; His6, C-terminal, cleaved) VHH: QVQLVETGGGLVQAGGSLRLSCAASGSTFSHSAGGWYRQAPEKQRELVAGIRSDGNINYADSVKDRFTISRDNASNTMYLQMNNLKPEDTAVYVCNIRGSYGNTYYSRWGQGTQVTVSS"
